In patent publication US20250002564A1 (HOSPITAL FOR SICK CHILDREN, published 2025):
Like-named read-outs stand apart in the source and are kept apart here.

What was measured:
[1] = target: T1, SARS-CoV-2 receptor binding domain (RBD), wild type, His-tagged (SARS-CoV-2, UniProt P0DTC2 319-541); assay: method and format not given
T1 construct: domain: RBD; also called His-tagged RBD; BEI NR52309

[2] = target: T1, SARS-CoV-2 receptor binding domain …; assay: BLI competition on His-tagged RBD, after 1st Ab 298
[3] = target: T1, SARS-CoV-2 receptor binding domain …; assay: BLI competition on His-tagged RBD, after 1st Ab 82
[4] = target: T1, SARS-CoV-2 receptor binding domain …; assay: BLI competition on His-tagged RBD, after 1st Ab 324
[5] = target: T1, SARS-CoV-2 receptor binding domain …; assay: BLI competition on His-tagged RBD, after 1st Ab 52
[6] = target: T1, SARS-CoV-2 receptor binding domain …; assay: BLI competition on His-tagged RBD, after 1st Ab 80
[7] = target: T1, SARS-CoV-2 receptor binding domain …; assay: BLI competition on His-tagged RBD, after 1st Ab 46
[8] = target: T1, SARS-CoV-2 receptor binding domain …; assay: method and format not given; remark: listed apart in the source
[9] = target: T1, SARS-CoV-2 receptor binding domain …; assay: BLI competition on His-tagged RBD, after 1st Ab 236
[10] = target: T2, SARS-CoV-2 RBD mutant L452R (SARS-CoV-2, UniProt P0DTC2 319-541); assay: BLI, IgG on mutated RBD compared with WT RBD; negative = decreased
T2 construct: domain: RBD; also called mutated RBD L452R

B1: mAb 236 (antibody, V domains shown)
VH: QVQLVQSGAEVKKPGASVKVSCKASGGTFTSYGINWVRQAPGQGLEWMGWMNPNSGNTGYAQKFQGRVTMTRDTSTSTVYMELSSLRSEDTAVYYCASRGIQLLPRGMDVWGQGTTVTVSS
VL: not shown
notes: also called IgG 236; Antibody 236
Kd [1]: 145 nM
RBD binding of 2nd Ab after 1st Ab (heat map) [2]: 0.2
RBD binding of 2nd Ab after 1st Ab (heat map) [3]: 0.2
RBD binding of 2nd Ab after 1st Ab (heat map) [4]: 0.4
RBD binding of 2nd Ab after 1st Ab (heat map) [5]: 1
RBD binding of 2nd Ab after 1st Ab (heat map) [6]: 0.1
RBD binding of 2nd Ab after 1st Ab (heat map) [7]: 1.2
Kd [8]: 145 nM
RBD binding of 2nd Ab after 1st Ab (heat map) [9]: 0.3
Affinity change vs WT RBD (fold-change) [10]: -4.1
